The record followed here is article doi:10.1101/659029.

Positions count from the first letter of the chain named.

B1: substrate-4 (RNA-4/Cy5 DNA) (mixed)
DNA 1: GGCACCAACACAAAACACATCTACACUCAACAAUCACUUU
DNA 2: GTAGATGTGTTTTGTGTTGGTGCC
modifications: strand 1 RNA with DNA at nt 17-24 (duplex end proximal to overhang)
B2: substrate-5 (RNA-5/Cy5 DNA) (mixed)
RNA: B1 DNA 1 with T20U, T22U
DNA: GTAGATGTGTTTTGTGTTGGTGCC
modifications: strand 1 RNA with DNA at nt 9-16 (middle of duplex)
B3: substrate-1 (RNA-1/Cy5 DNA) (DNA:RNA)
RNA: GGCACCAACACAAAACACAUCUACACUCAACAAU
DNA: GTAGATGTGTTTTGTGTTGGTGCC

The target in the data set is Prp43p;Ntr1p (1-120) (Saccharomyces cerevisiae (budding …, UniProt P53131;Q06411 1-767;1-120, |)). Put plainly: EMSA. (In general: A gel shift assay detects complexes by their altered migration in electrophoresis.)
Chain of Prp43p;Ntr1p (1-120) (Saccharomyces cerevisiae (P53131 whole entry, chain 1 of 2): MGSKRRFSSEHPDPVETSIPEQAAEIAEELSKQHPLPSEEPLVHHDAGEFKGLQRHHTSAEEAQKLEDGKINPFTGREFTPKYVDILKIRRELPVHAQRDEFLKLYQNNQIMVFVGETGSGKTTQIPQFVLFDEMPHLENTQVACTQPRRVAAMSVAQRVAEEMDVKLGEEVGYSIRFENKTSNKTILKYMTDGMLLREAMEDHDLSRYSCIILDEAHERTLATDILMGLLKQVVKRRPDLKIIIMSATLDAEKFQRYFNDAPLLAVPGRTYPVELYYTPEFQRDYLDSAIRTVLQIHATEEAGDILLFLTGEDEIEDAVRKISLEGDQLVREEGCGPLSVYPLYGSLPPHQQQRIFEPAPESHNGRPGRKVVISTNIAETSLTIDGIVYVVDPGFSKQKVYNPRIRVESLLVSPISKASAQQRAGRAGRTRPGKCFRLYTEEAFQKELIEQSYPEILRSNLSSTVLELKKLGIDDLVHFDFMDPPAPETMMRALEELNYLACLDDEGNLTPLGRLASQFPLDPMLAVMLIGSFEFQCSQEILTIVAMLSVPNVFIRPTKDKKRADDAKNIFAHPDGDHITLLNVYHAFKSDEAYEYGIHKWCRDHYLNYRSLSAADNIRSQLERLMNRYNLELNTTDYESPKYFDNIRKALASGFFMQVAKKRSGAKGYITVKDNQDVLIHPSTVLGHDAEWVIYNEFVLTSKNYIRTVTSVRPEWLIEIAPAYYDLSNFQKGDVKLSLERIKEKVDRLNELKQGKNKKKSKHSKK
Chain of Prp43p;Ntr1p (1-120) (Saccharomyces cerevisiae (Q06411 1-120, chain 2 of 2): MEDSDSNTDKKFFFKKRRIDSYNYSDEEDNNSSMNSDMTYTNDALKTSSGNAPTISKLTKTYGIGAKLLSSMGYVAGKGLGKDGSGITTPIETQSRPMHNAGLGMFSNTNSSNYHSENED
With B1, the binding result is listed as “binds”.
As for B2, the entry is “binds”.
As for B3, the entry is “binds”.
